Assay results: patent US5721133

Key:
[1] = target: hybrid regulatory protein encoded by plasmid p1009 (GAL4 residues 1-147, functional wild-type Coxsackievirus 3C protease linker, GAL4 residues 768-881) (yeast S. cerevisiae; Coxsackievirus (CVB3)) (UniProt P03313)
[2] = target: hybrid regulatory protein encoded by plasmid pHP236 (GAL4 residues 1-147, functional HIV-1 protease linker, GAL4 residues 768-881) (yeast S. cerevisiae; HIV-1 (λHXB-2 subclone)) (UniProt P04585)

Row | Substance | β-Galactosidase Activity (MUG units), GAL1-lacZ reporter in yeast GGY1::171 [1] | β-Galactosidase Activity (MUG units), GAL1-lacZ reporter in yeast GGY1::171 [2]
1 | hybrid regulatory protein encoded by plasmid p1009 (GAL4 residues 1-147, functional wild-type Coxsackievirus 3C protease linker, GAL4 residues 768-881) (from UniProt P03313) (enzyme) | 14 MUG units | –
2 | hybrid regulatory protein encoded by plasmid pHP236 (GAL4 residues 1-147, functional HIV-1 protease linker, GAL4 residues 768-881) (from UniProt P04585) (enzyme) | – | 68 MUG units
